Series [1] deals with MaxS2pS11pK31AcK57Ac S2pS;S11pS;K31Ac;K57Ac;M1Nle;M65Nle;M148Nle, P61244-2. Put plainly: BLI. The settings on record: EMSA: 10 mM MES pH 6.0, 150 mM KCl, 1 mM MgCl2, 10% glycerol, room temperature 30 min, 8% TBE gel; CD: same buffer; BLI: 1x PBS, 0.1% BSA, 0.02% Tween-20, 65 nM.
The target in the next series is Max-WT (UniProt P61244-2, M1Nle;M65Nle;M148Nle). Put plainly: EMSA; 1 uM DNA, 0-8 uM protein, 1 mM MgCl2; EMSA: 10 mM MES pH 6.0, 150 mM KCl, 1 mM MgCl2, 10% glycerol, room temperature 30 min, 8% TBE gel; CD: same buffer; BLI: 1x PBS, 0.1% BSA, 0.02% Tween-20, 65 nM biotinylated DNA loaded (temperature not in material). Particulars: tags: C-terminal extra K; chain copies: 2.

Data on 2 molecules can be found in PMC11998062, “One-Pot Total Synthesis of a Post-translationally Modified Max Transcription Factor Sheds Light on Ser-Phosphorylation and Lys-Acetylation Crosstalk in DNA Binding”.

Sequence of Max-WT (P61244 other isoform, or with tags, fused parts or gaps M1Nle;M65Nle;M148Nle): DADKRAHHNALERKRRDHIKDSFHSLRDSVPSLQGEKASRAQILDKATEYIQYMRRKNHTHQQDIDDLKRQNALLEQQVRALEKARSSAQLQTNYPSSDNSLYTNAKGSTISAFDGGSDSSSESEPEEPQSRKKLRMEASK
Sequence of MaxS2pS11pK31AcK57Ac S2pS;S11pS;K31Ac;K57Ac;M1Nle;M65Nle;M148Nle, P61244-2 (P61244 whole entry, looked up): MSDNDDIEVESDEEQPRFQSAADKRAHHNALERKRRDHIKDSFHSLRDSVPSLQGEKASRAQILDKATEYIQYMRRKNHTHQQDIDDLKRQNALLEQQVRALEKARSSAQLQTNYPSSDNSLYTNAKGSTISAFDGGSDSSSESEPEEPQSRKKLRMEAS

“CCGGCTGACACGTGGTATTAAT (double strand) [biotinylated E-box DNA probe]” displayed a Kd in series [1] of 1100 nM.

B1: E-box DNA probe (dsDNA)
DNA 1: CCGGCTGACACGTGGTATTAAT
DNA 2: ATTAATACCACGTGTCAGCCGG
Regarding B1, the binding result in the series with Max-WT is listed as “binds”.
